Assays:
[1] = biological target: gCCM1 E5R1 (single GlcNAc modifications, spin-labelled) (human) (UniProt P13688); assay: continuous-wave EPR
[2] = biological target: CCM1 D94R1 (non-glycosylated, spin-labelled) (human) (UniProt P13688); assay: continuous-wave EPR
[3] = biological target: cgCCM1 Q103R1 (complex N-linked glycans, spin-labelled) (human) (UniProt P13688); assay: continuous-wave EPR
[4] = biological target: gCCM1 Q103R1 (single GlcNAc modifications, spin-labelled) (human) (UniProt P13688); assay: continuous-wave EPR
[5] = biological target: CCM1 Q103R1 (non-glycosylated, spin-labelled) (human) (UniProt P13688); assay: continuous-wave EPR
[6] = biological target: CCM1 E5R1 (non-glycosylated, spin-labelled) (human) (UniProt P13688); assay: continuous-wave EPR
[7] = biological target: cgCCM1 E5R1 (complex N-linked glycans, spin-labelled) (human) (UniProt P13688); assay: continuous-wave EPR
SEC = biological target: the molecule itself; assay: SEC

Molecule: gCCM1 E5R1 (single GlcNAc modifications, spin-labelled) (from UniProt P13688 68-175) (domain or fragment)
- stoichiometry N [1]: 2

Molecule: CCM1 D94R1 (non-glycosylated, spin-labelled) (from UniProt P13688 69-175) (domain or fragment)
- stoichiometry N [2]: 2

Molecule: cgCCM1 Q103R1 (complex N-linked glycans, spin-labelled) (from UniProt P13688 68-175) (domain or fragment)
- stoichiometry N [3]: 2

Molecule: gCCM1 Q103R1 (single GlcNAc modifications, spin-labelled) (from UniProt P13688 68-175) (domain or fragment)
- stoichiometry N [4]: 2

Molecule: CCM1 Q103R1 (non-glycosylated, spin-labelled) (from UniProt P13688 69-175) (domain or fragment)
- stoichiometry N [5]: 2

Molecule: CCM1 E5R1 (non-glycosylated, spin-labelled) (from UniProt P13688 69-175) (domain or fragment)
- stoichiometry N [6]: 2

Molecule: cgCCM1 E5R1 (complex N-linked glycans, spin-labelled) (from UniProt P13688 68-175) (domain or fragment)
- stoichiometry N [7]: 2

B1: non-glycosylated CEACAM1 N-terminal Ig-like domain (CCM1) (domain or fragment, human, UniProt P13688 35-141, looked up)
chain: QLTTESMPFNVAEGKEVLLLVHNLPQQLFGYSWYKGERVDGNRQIVGYAIGTQQATPGPANSGRETIYPNASLLIQNVTQNDTGFYTLQVIKSDLVNEEATGQFHVY
- stoichiometry N (SEC): 2
